Assay results as given in patent US20230227537A1 (VIB VZW, published 2023).
Like-named read-outs stand apart in the source and are kept apart here.

What was measured:
[1] = molecular target: T1, Mouse IgG1 Fc fused SARS-CoV-2 RBD (Sino Biological) (SARS-CoV-2; mouse, UniProt P0DTC2 330-518)
[2] = molecular target: T2, SARS-CoV-2 RBD protein Avi-tag biotinylated (AcroBiosystems SPD-C82E9) (SARS-CoV-2, UniProt P0DTC2 330-518)
[3] = molecular target: T3, monomeric human Fc-fused SARS-CoV-2_RBD-SD1 (SARS-CoV-2, UniProt P0DTC2 319-591); test: BLI, RBD-SD1-mono-hFc on AHC tips
[4] = molecular target: T3, monomeric human Fc-fused …; test: BLI kinetics on RBD-mono-hFc, 1:1 fit, mean ± SD, n = 2 [lower graph]
[5] = molecular target: T2, SARS-CoV-2 RBD protein Avi-tag …; remark: listed apart in the source
[6] = molecular target: T1, Mouse IgG1 Fc fused SARS-CoV-2 RBD …; remark: listed apart in the source
[7] = molecular target: T2, SARS-CoV-2 RBD protein Avi-tag …; remark: listed apart in the source
[8] = molecular target: T2, SARS-CoV-2 RBD protein Avi-tag …; remark: listed apart in the source
[9] = molecular target: WT SARS-CoV-2 RBD displayed on Saccharomyces cerevisiae (SARS-CoV-2, UniProt P0DTC2 331-518)
[10] = molecular target: T2, SARS-CoV-2 RBD protein Avi-tag …; remark: listed apart in the source
[11] = molecular target: T3, monomeric human Fc-fused …; test: BLI kinetics on RBD-mono-hFc, 1:1 fit, mean ± SD, n = 2 [upper graph]
[12] = molecular target: T3, monomeric human Fc-fused …; test: BLI kinetics on RBD-mono-hFc, 1:1 fit, mean ± SD, n = 2
[13] = molecular target: SARS-CoV-2 spike, full length, on cells or on pseudotyped/authentic virus (SARS-CoV-2, UniProt P0DTC2 14-1273); test: cell-based or functional assay
[14] = molecular target: T1, Mouse IgG1 Fc fused SARS-CoV-2 RBD …; remark: listed apart in the source
[15] = molecular target: T1, Mouse IgG1 Fc fused SARS-CoV-2 RBD …; remark: listed apart in the source
[16] = molecular target: T1, Mouse IgG1 Fc fused SARS-CoV-2 RBD …; test: BLI, RBD-mFc on AMC tips, global 1:1 fit

B1: D72-52: VHH72_h1_E1D_S56A-([change])2-hIgG1hinge_EPKSCdel-hIgG1Fc_LALAPG_Kdel (Fc fusion)
chain: DVQLVESGGGLVQPGGSLRLSCAASGRTFSEYAMGWFRQAPGKEREFVATISWSGGATYYTDSVKGRFTISRDNAKNTVYLQMNSLRPEDTAVYYCAAAGLGTVVSEWDYDYDYWGQGTLVTVSSGGGGSGGGGSDKTHTCPPCPAPEAAGGPSVFLFPPKPKDTLMISRTPEVTCVVVDVSHEDPEVKFNWYVDGVEVHNAKTKPREEQYNSTYRVVSVLTVLHQDWLNGKEYKCKVSNKALGAPIEKTISKAKGQPREPQVYTLPPSRDELTKNQVSLTCLVKGFYPSDIAVEWESNGQPENNYKTTPPVLDSDGSFFLYSKLTVDKSRWQQGNVFSCSVMHEALHNHYTQKSLSLSPG
- IC50 [1]: 0.199 mg/L

B2: VHH3.83 (VHH)
VHH: QVQLQESGGGLVQPGDSLRLSCVLSGGVFTSYAMGWFRQAPGKEREFLAAITFNSDATYYADSVKGRFTISRDNAKNTAYLQMNSLKPNDTAVYSCAAGGNHYNPQYYHDYDKYDHWGQGTQVTVSS
- IC50 [2]: 0.162 nM

B3: VHH3.36 (VHH)
VHH: QVQLQESGGGLVQAGDSLRLSCVVSGGTFSSYAMGWFRQAPGKERELVAAINWGGISVYYADSVKGRFTISRDNAENTVYLQMNSLKPEDTAVYYCAADPKGWSEWDMEYWGKGTQVTVSS
- IC50 [2]: 0.156 nM

B4: VHH3.115 (VHH)
VHH: QVQLQESGGGLVQTGGSLRLSCAASGLTFSDIAMGWFRQAPGREREFVATISWSGGGTYYAEPVRGRFAISRDNAKNTVYLQMNSLKPEDTAVYYCAAAGAGTVVSEWDYDYDYWGQGTQVTVSS
- Kd [3]: 0.734 nM
- IC50 [2]: 0.409 nM
- koff [4]: 0.00157 s⁻¹
- kon [4]: 2.14e+06 M⁻¹ s⁻¹

B5: VHH3.38 (VHH)
VHH: QVQLQESGGGLVQAGGSLRLSCAASGGTFNNYAMAWFRQAPGQERELVAAMFWSGLPKYYADSVKGRFTISTDDAKNTVYLQMNGLKPEDTAVYYCAADSRGWSDVGGMDYWGKGTQVTVSS
- IC50 [2]: 0.769 nM

B6: VHH72_h1(E1D,S56A) sequence optimized (SO), monovalent (VHH)
VHH: DVQLVESGGGLVQPGGSLRLSCAASGRTFSEYAMGWFRQAPGKEREFVATISWSGGATYYTDSVKGRFTISRDNAKNTVYLQMNSLRPEDTAVYYCAAAGLGTVVSEWDYDYDYWGQGTLVTVSS
- koff [5]: 0.0024 s⁻¹
- koff [6]: 0.00568 s⁻¹

B7: PB9677 hIgG4 FALA (Fc fusion)
VHH: DVQLVESGGGLVQPGGSLRLSCAASGRTFSEYAMGWFRQAPGKEREFVATISWSGGATYYTDSVKGRFTISRDNAKNTVYLQMNSLRPEDTAVYYCAAAGLGTVVSEWDYDYDYWGQGTLVTVSS
- IC50 (read off the curve) [7]: ~0.02 mg/L

B8: VHH72_h1(S56A) (VHH)
VHH: EVQLVESGGGLVQPGGSLRLSCAASGRTFSEYAMGWFRQAPGKEREFVATISWSGGATYYTDSVKGRFTISRDNAKNTVYLQMNSLRPEDTAVYYCAAAGLGTVVSEWDYDYDYWGQGTLVTVSS
- Kd [8]: 3.09 nM
- fold improvement of KD against VHH72 h1 [8]: 3 fold
- koff [8]: 0.00069 s⁻¹
- Kd [1]: 5.26 nM
- fold better competition than VHH72-wt and VHH72_h1 [1]: 7 fold
- fold improvement of KD against VHH72 h1 [1]: > 6 fold
- EC50 (read off the curve) [9]: ~0.3 mg/L

B9: VHH2.50 (VHH)
VHH: QVQLQESGGGLVQAGGSLRLSCAASGRTFSSIAMGWFRQAPGKEREFVATISWSGGSTYYADSVKGRFTISRDNAKNTVYLQMNSLKPEDTAVYYCAAAGLGTVVSEWDYDYDYWGQGTQVTVSS
- IC50 [2]: 27.7 nM

B10: VHH72_h1 (E1D) (VHH)
VHH: DVQLVESGGGLVQPGGSLRLSCAASGRTFSEYAMGWFRQAPGKEREFVATISWSGGSTYYTDSVKGRFTISRDNAKNTVYLQMNSLRPEDTAVYYCAAAGLGTVVSEWDYDYDYWGQGTLVTVSS
- koff [5]: 0.00354 s⁻¹
- Kd [10]: 10.4 nM
- koff [10]: 0.00204 s⁻¹
- Kd [6]: 31.1 nM
- koff [6]: 0.0313 s⁻¹

B11: VHH3.35 (VHH)
VHH: QVQLQESGGGLVQAGGSLTLSCEVSGRTNDNYGVGWFRQVPGAERELVAAIRWSSISRYYKDSVKGRFTISRDNAKNTVYLQMDMLKAEDTAVYYCAADPAGWSEFGMEYWGKGTQVTVSS
- IC50 [2]: 0.406 nM

B12: VHH3.55 (VHH)
VHH: QVQLQESGGGLVQAGGSLRLSCEVSGRTNDNYGVGWFRQVPGAERELVAAIRWSSISRYYKDSVKGRFTISRDNAKNTVYLQMDMLKPEDTAAYYCAADPAGWSEFGMEYWGKGTQVTVSS
- IC50 [2]: 0.322 nM

B13: VHH3.149 (VHH)
VHH: QVQLQESGGGLVQAGGSLKLSCAASGRTFSSYALGWFRQAPGTEREFVSAINWFGAPTYYADSVKGRFTISRDNAKNTVYLQMDNLKPEDTAVYYCAADSKGWDPQDMDYWGKGTQVTVSS
- IC50 [2]: 0.334 nM

B14: VHH3.29 (VHH)
VHH: QVQLQESGGGLVQAGGSLRLSCVASGRTFSSGGMGWFRQAPGQEREFVAGIGWAGLSSYYLDSVKGRFTISLDNAKNTVYLQMNMLKPEDTGVYYCAADDHGWSAAGMDYLGQGTQVTVSS
- IC50 [2]: 0.389 nM

B15: VHH3.77 (VHH)
VHH: QVQLQESGGGLVQAGGSLRLSCVSSGRAFGNGAVGWFRQGPGRPREFVATVSWNGGGTYFAESVRGRFTISRDNAKNTVYLQMNNLKPEDTAVYYCALAGEGTVVSEWDYDYEYWGQGTQVTVSS
- Kd [3]: 0.15 nM
- IC50 [2]: 0.237 nM
- Kd [11]: 0.153 nM
- koff [11]: 0.000297 s⁻¹
- kon [11]: 1.96e+06 M⁻¹ s⁻¹

B16: VHH3BE4 (VHH)
VHH: QVQLQESGGGLVQAGGSLRLSCVASGRAFGNGAVGWFRQAPGREREFVATVSWNGGGTYYAESVRGRFTISRDNAKSTVYLQMNSLKPEDTAVYYCASAGEGTVVSEWDYDYDYWGQGTQVTVSS
- IC50 [2]: 0.212 nM

B17: VHH3.17 (VHH)
VHH: QVQLQESGGGLVEAGGSLTLSCAASGRAFGDGAVGWFRQGPGRPREFVATVSWNGGGTYFAESVRGRFTISRDNAKNTVYLQMNNLKPEDTAVYYCALAGEGTVVSEWDYDYEYWGQGTQVTVSS
- Kd [3]: 0.234 nM
- IC50 [2]: 0.316 nM
- koff [12]: 0.000358 s⁻¹
- kon [12]: 1.54e+06 M⁻¹ s⁻¹

B18: VHH3.144 (VHH)
VHH: QVQLQESGGGLVQAGGSLRLSCVASGRAFGNGAVGWFRQAPGREREFVATVSWNGGGTYYAESVRGRFTISRDNAKSTVYLQMNSLKPEDTAVYYCASAGEGTVVSEWDYDYDYWGQGTQVTVSS
- IC50 [2]: 0.397 nM

B19: VHH3.47 (VHH)
VHH: QVQLQESGGGLVQAGDSLRLSCAASGHNFSTYAMAWFRQAPGTERELVAAISENDVMRYYADSVKGRFTISRDNAKNMAYLQMNSLKVEDTAVYLCAADPKGWSEWDMDYWGKGTQVTVSS
- IC50 [2]: 0.297 nM

B20: D72-22: h1-VHH72-[change]-GS-hIgG1hinge-hIgG1Fc (Fc fusion)
chain: EVQLVESGGGLVQPGGSLRLSCAASGRTFSEYAMGWFRQAPGKEREFVATISWSGGATYYTDSVKGRFTISRDNAKNTVYLQMNSLRPEDTAVYYCAAAGLGTVVSEWDYDYDYWGQGTLVTVSSGS
- IC50, plaque reduction neutralization, authentic SARS-CoV-2 [13]: 0.12 mg/L
- EC50 [14]: 0.00439 mg/L
- Kd [15]: 0.0471 nM
- koff [15]: 4.87e-05 s⁻¹
- kon [15]: 1.07e+06 M⁻¹ s⁻¹

B21: D72-17: h1-VHH72-GS-hIgG1hinge-hIgG1Fc-L234A-L235A-P329G (Fc fusion)
chain: EVQLVESGGGLVQPGGSLRLSCAASGRTFSEYAMGWFRQAPGKEREFVATISWSGGSTYYTDSVKGRFTISRDNAKNTVYLQMNSLRPEDTAVYYCAAAGLGTVVSEWDYDYDYWGQGTLVTVSSGS
notes: ExpiCHO
- EC50 [14]: 0.00836 mg/L
- Kd [16]: 0.1 nM
- koff [16]: 0.000178 s⁻¹
- kon [16]: 1.77e+06 M⁻¹ s⁻¹

B22: D72-15: VHH72-GS-hIgG1hinge-hIgG1Fc-L234A-L235A-P329G (Fc fusion)
chain: QVQLQESGGGLVQAGGSLRLSCAASGRTFSEYAMGWFRQAPGKEREFVATISWSGGSTYYTDSVKGRFTISRDNAKNTVYLQMNSLKPDDTAVYYCAAAGLGTVVSEWDYDYDYWGQGTQVTVSSGS
notes: ExpiCHO
- EC50 [14]: 0.0108 mg/L
- Kd [16]: 0.13 nM
- koff [16]: 0.000297 s⁻¹
- kon [16]: 2.29e+06 M⁻¹ s⁻¹
